Test results: the DeepSol protein solubility set

assay: soluble on expression in E. coli; label from the status in PepcDB or PDB records

| Sequence | soluble on expression in E. coli |
| --- | --- |
| KVWKPGDECFALYWEDNKFYRAEVEALHSSGMTAVVKFTDYGNYEEVLLSNIKPVQTEAWVRDPN | soluble |
| MTLSIAHLGPPGTYAEQAAVLYVNWLTKSTGDEATLSPYPTISQSLHAVADGQAHLAVVPVENSIEGSVTTTLDALWQLDSLRIQLALVLPIVHTLISCASGLDKIETVYSHPQALAQCQGWLERFLPTVQIVPSNSTTEALQRLEQETTTAAIASSRAAQLYNLPILATGINDYPENCTRFWVVSQGEADAGYQTSKVPTSHTSLAFSMPANTPGALVKPLQIFAQLGINLSRIESRPTKRSLGEYLFFMDLEADVKESQMQSALAELTIHTEILKILGAYNVLPIGAFT | not soluble |
| MAPASILCCDTDNRRPQMKLTGGCYCGALRYEAEGEPMLKAQCHCRACQSYSGGAPNLFMVMPAAGFRYVKGTPKSFRLEDRPDRVTRDFCATCGTGVASHRPGLPAVILKIGTLDDPALFKGPRAAVFAAEKQAFHIIPEGVHAFDGLPPT | not soluble |
| MGSSHHHHHHSSGLVPRGSHMRIAIVVPYLAKVEGNKIALILASKLAKNNEVFVVSYAVKDSIIDEVNSLISPAKFFYQKAISNGRYGIRFAIKYQLLKGVDRKMANLLKALMPLDIYLVISNEGHWIPIYFDKAYGTKSALVVMELHDHGFISAGNDPLRFPILRTVLASPAYGLAKVIEYKRFKSFDILFANSKWTQIVFQYLYGLPVSGILFGIDTEVFKPTPSKFSEMNFIAVPTISLKKDYYGRRLISKLAKDGIPLLSYGPIKIEGVKHLGYLSQDEMVKILSAAKATLFLFNYEALGLIPFESLACGTPVITYPKQGPLVELSDNPNVIYFREYEELLKNCRLHLNSAKDEMTINKCRESVLKYDISKVSVDVEQLFQTIIFNKNKS | soluble |
| MEAVWGILPKTVAAALQHHLPSCRRGIEEIRIRVSRPLEVIVDGTARLLPYEVTKEDGVHLLNKLSHYSIYAVEEELKRGFMTIEGGHRVGLAGKVITEGGKVKAIRDVSSFNIRIAKEQIGISEPLIPYVYDGRWRHTMIIGSPQTGKTTLLRDAARLISSGTGRIPAQKVAIVDERSEIAGCVKGIPQFSFGPRLDVLDACPKAEGMMMMIRSMSPDVMIVDEIGREEDSEAVLEAANAGVSVWTTVHGRNIQDVWQRPTLGPVMEQKVFERFIELTNIPHPGSIRRILDAGGTVLYERAVVHR | not soluble |
| MVQESTMICVDNSEYMRNGDFQPTRLQSQQDAVNLVTQCKLRANPENAVGILSMANSVQVLSSLSTEQGRLMMKNHSIEPFGKCNFIAGIKIAHLALKHRQNRNHKMRVVLFIGSPLEEIEMNELVKIAKKMKKEKVLCDVIMFGENESDGHEKFSTFVDTLNGKEGSGSSLIVVPQGSSLTDALLQSSVCKNEDGQAAFGGGGNGMDNAFGMDVENDPDLALALRVSMEEERARQAAAAAANGGAADSGADAEVAAAAAAVPLEEMDMGAMTEEQQLEWALRLSMQENAPAEQPQVQHEQMDVDGAPAVGGDNLDDLMNNPELLQQIVDDLPAANAEKDDDKEKK | not soluble |
| MELSEPLENYLKEIYEIELLKGYARVSDLILAFNVSPGTVSKALEKLEKIGLIERDNKKIKLTAEGKKIAEKLIRAHRLSERLLTDIIGLDWIRAHQLAHRLEHIWPEDVVDKIDELLGKPLTCPHGHPIPGREVKVNGIKLSEAECNKKYKVIMIIREEEWILSMADELNIKPGVEIKLIKKNENDFVIEIDNKKESIPKALAEEVLVSE | soluble |
| MSLDIEEARTTGIIDDKEAESRSESLEKAYLKTPLDPWKGEICTVSLSAAAHESRVVPISHKVGQVFEPSMDRDEARKLVLDLLDEYLFKNEKVLKIAVNLSFETKYAAKYGKYILGKVADPLIMWVRCLQIAAPQKINNPKKPTSGWGLKPATKHIFGVTMNDFSALLKKYKVNFFDEIDASKGEGLLYSAEDSDYAVQHYEYWSQIAAQISRYEEWLHKIEMPFTRVIGLMEYWGMNWDPNLATQKKQEAEIMQEQAAERIKQIAKETFNIDINTGKSGKTNEVKSLMFDYLKIPIAKYGKTGASLDQEALIDMAFMLENKLNDIDEEKYLGVSLPENWENIDPEKDPTLDKLERGAIRIAKREPHPYKEQALEVIDQLKKIQKYTTLLSSHIIGREKYLNFMSGRIHAGYSPFTETGRLNSFNPNGQNVPRPDNDEFKIRNFFVPKPGKILFFIDFSGFELRLMAWKSGDEVMTELFNTGGDMHRRTASVMTGKSEAEIVKKERTDAKAGNFGISYGGTEHALQFTFKTKYMIRKTLDECAQIVNAVKTAYKRIPEYQRKIVLEAREQGYVQTIYGYMRLLPGINSANRRDRGSAERQAANTPVQGSAADIMKKVQNEIYESIGKQEGVLSHGSADMIAQIHDEIIFEIDDDPEIVVAVEKQIKQVMEQPPVPGFPVPIEAEGSVGYRWGEKMSVESWLKQREGHHHHHH | soluble |
| MRGEFYQQLTNDLETARAEGLFKEERIITSAQQADITVADGSHVINFCANNYLGLANHPDLIAAAKAGMDSHGFGMASVRFICGTQDSHKELEQKLAAFLGMEDAILYSSCFDANGGLFETLLGAEDAIISDALNHASIIDGVRLCKAKRYRYANNDMQELEARLKEAREAGARHVLIATDGVFSMDGVIANLKGVCDLADKYDALVMVDDSHAVGFVGENGRGSHEYCDVMGRVDIITGTLGKALGGASGGYTAARKEVVEWLRQRSRPYLFSNSLAPAIVAASIKVLEMVEAGSELRDRLWANARQFREQMSAAGFTLAGADHAIIPVMLGDAVVAQKFARELQKEGIYVTGFFYPVVPKGQARIRTQMSAAHTPEQITRAVEAFTRIGKQLGVIA | soluble |
| MVAVPEGYESLLERPLYGHLATVRPDGTPQVNAMWFAWDGEVLRFTHTTKRQKYRNIKANPAVAMSVIDPDNPYRYLEVRGLVEDIVPDPTGAFYLKLNDRYDGPLTEPPADKADRVIIVVRPTAFSKQVA | soluble |
| MSLIEKLRNIAIIAHVDHGKTTLVDKLLQQSGTFDSRAETQERVMDSNDLEKERGITILAKNTAIKWNDYRINIVDTPGHADFGGEVERVMSMVDSVLLVVDAFDGPMPQTRFVTKKAFAYGLKPIVVINKVDRPGARPDWVVDQVFDLFVNLDATDEQLDFPIVYASALNGIAGLDHEDMAEDMTPLYQAIVDHVPAPDVDLDGPFQMQISQLDYNSYVGVIGIGRIKRGKVKPNQQVTIIDSEGKTRNAKVGKVLGHLGLERIETDLAEAGDIVAITGLGELNISDTVCDTQNVEALPALSVDEPTVSMFFCVNTSPFSGKEGKFVTSRQILDRLNKKLVHNVALRVEETEDADAFRVSGRGELHLSVLIENMRREGFELAVSRPKVIFREIDGRKQEPYENVTLDVEEQHQGSVMQALGERKGDLKNMNPDGKGRVRLDYVIPSRGLIGFRSEFMTMTSGTGLLYSTFSHYDDVRPGEVGQRQNGVLISNGQGKAVAFALFGLQDRGKLFLGHGAEVYEGQIIGIHSRSNDLTVNCLTGKKLTNMRASGTDEAVVLVPPIRMTLEQALEFIDDDELVEVTPTSIRIRKRHLTENDRRRANRAPKDEGHHHHHH | soluble |
| MTEVNAFADTPWRAGVIQDFARSELFDRTFEEGMQLVEETAAYLDGAGRHDSKVLSRNAALGYATESMRLTTRLMQVASWLLVQRAVREGEMPPEAACAEAYRLAEEAPADGPAVEELPFGLMNLLQRSERLYERVRHLDRRMYVESPNEEAPRPVQNQLDRLTAAFGG | soluble |
| MGSDKIHHHHHHMIIAVSGKGGVGKTAFTTLLIKALSKKTNSILVVDADPDSNLPETLGVEVEKTVGDIREELKKLVERDEIPAGMTKLDYLRSKIFEILVETKYYDLLVMGRPEGSGCYCSVNNWLRQIIDNLAKDYEFVVIDTEAGLEHLSRRTTQNVDVMIVITDASKRGLGTAKRIKKLANELEVKFKDIYVVANKVKPEYEELIDNYAKELGLNLIGKLPYNKEIAEYDLKGIPLWNLPENNEVYKKVEEIAEKIINKKF | not soluble |
| MVRNLVIDITKKPTQNIPPTNEIIEEAITELNVDELLDRLFEKDESGEVITPSRIAKMLEEKAFEIYKEYEKQVREAYLSAGYSREKLEQSFQQARFSRGGKAFEIIFTKLLNKFGIRYEHDRVIKIYDYITEGEKPAFIIPSVRTFLNDPSSAILITVKRKVRERWREAVGEAQILRNKFGDEINFWFVGFDEEFTIYSAIAMLDNGIDRVYVIDGRYDSLIEEIKRISDPNFNEDKYIQKIRRFSDIFDDIIQFLNKHGNKKRGKQLTLV | soluble |
| MDEIAIDPSINQDMSASEIYRFEGTLYTLPFVTKNNDISWNKSRDEYKSECRTFPPLYKSLFDRQKCGKVRFSPPLSLEQNVNAHLKGSSSQHMTTILQGVEDAGYVFPDIDMLVTTEVLNTIAGSIFNQEKSWKLRAYVTQVQGKNMVIVCDDDFEHHQRISSTQSDFPIERTEALNFAHSICVRDGTRELNNSLHGSEVVVSTIKFREKSVKMIVIGEVDLVTGKNNKSLNTIVATGRTARASFGHNVESRVDSLDYLWSRCFWLGQRLCLVGMRSTEEAPVSSAYLYSLYPPTLKERKRTNYRVDVATTCVAQVMIRLREEAAKMPHANWIIEYTGRDKEFDPAFIKINVAPDTHSFLLVQEYWHIEKEAFESAEEQKKAEDQNVVEPEKIVRTFHQMKRLPGVRKSGTIAKQFQKIINSMSS | not soluble |
| MGSDKIHHHHHHMNPPKRLLVIHRALAPYRIELLNTLSAAFDTHIYFEFASPIEQRFDAGELAKRVHFQSSVLPPAPKIPGLKNFRPYAASLVRSLRPDVVLCSEFNLLTLTLTAASRLFSPKTKLYVLCDDNEQMAEAELHYGRGLKHRMLSYVEGVILCDSRACDLYASRFATLDRERFVYLPIVQDEKVLRPLYEQVFGIGRDLRHALIPAGARMILYVGRLSEEKNLPALIDNLSTLPDDVHLVIVGDGPMQSALMNQVQATGHPERIIFAGKKEGAELYAYYTQADCLVLPSMRECFGSVVNEALIAGVPVVCSDIAGASCLVTESNGRTFSPMLPNALSQACNDLLGSIAPFCGDSLRPSLMPFTFERAIAPVLSLLSR | not soluble |
| MSLKTNKLINKSFRFKQFSIEEGTCGMPISTDGVLLGSWAFSLSPTTILDIGCGTGLLSLMCAQRFPHAHITALDIEQTAYLAAEHNRQQSPWAERIECQHADILHWQPSKRFAAIICNPPYFNSGETAQHQVRATARHTISLQHQALIERLPQLLEPDGVASFILPKAEGEDFIALARQAGLFVGRYCQVQPTTDKPVHRLLFELHLSPCLPVETRLVIREQQGYSEAFCQLTRDFYLKMSEGHHHHHH | soluble |
| RVETQPEVQLPGPAPNLRAYAASPTSITVTWETPVSGNGEIQNYKLYYMEKGTDKEQDVDVSSHSYTINGLKKYTEYSFRVVAYNKHGPGVSTPDVAVRTLSD | soluble |
| MQSVNRKSNKGATANIDAQEPFSVLLMGIDTGDLGRTEQGRSDTTMVVTINPKENKSTMISLDRDILTDIVGNDTQDKLNHAYAFGGAEMAINTVQELLDIPIHHYVSINMKGLKDLIDAVGGIEVDNTIGEFTLDGITVPAGKIKLDGTTGLAYARMRHEDPEGDVGRQRRQREVVEKIVRKVMSFDGVSKYRKILDAVEANVKTDLTWDDMMDIQSKYLSAFKTIDSEQLQGYSATIDDIYYQVLDPNSLYKTQTTLRKQLGLKEHASEREKDLAFYNQFSYAVTDTALIGESGDSSANSSTSSSSTADTTAGQTEYNGNTQQAAEGTYDPNTYVDPNAYTDPNAYADPNTYVDPNAPQYLEHHHHHH | soluble |
| MKIGIDAGGTLIKIVQEHDNRRYYRTELTTNIQKVIDWLNNEEIETLKLTGGNAGVIADQIHHSPEIFVEFDASSKGLEILLDEQGHQIEHYIFANVGTGTSFHYFDGKDQQRVGGVGTGGGMIQGLGYLLSNITDYKELTNLAQNGDRDAIDLKVKHIYKDTEPPIPGDLTAANFGNVLHHLDNQFTSANKLASAIGVVGEVITTMAITLAREYKTNHVVYIGSSFNNNQLLREVVENYTVLRGFKPYYIENGAFSGALGALYLLEHHHHHH | soluble |
